Reference: patent US20250060376A1 (PLASMARKER BIOTECHNOLOGY, published 2025)

Biological target: T1, GluA1 (mouse (hippocampus of DIR-KI mice), UniProt P23818 19-907, limits assumed)
T1 construct: Endogenous protein in tissue sections (PLA assay)
Experiment: PLA assay in hippocampus (FIG. 20E)

T1 sequence (P23818 19-907 limits assumed): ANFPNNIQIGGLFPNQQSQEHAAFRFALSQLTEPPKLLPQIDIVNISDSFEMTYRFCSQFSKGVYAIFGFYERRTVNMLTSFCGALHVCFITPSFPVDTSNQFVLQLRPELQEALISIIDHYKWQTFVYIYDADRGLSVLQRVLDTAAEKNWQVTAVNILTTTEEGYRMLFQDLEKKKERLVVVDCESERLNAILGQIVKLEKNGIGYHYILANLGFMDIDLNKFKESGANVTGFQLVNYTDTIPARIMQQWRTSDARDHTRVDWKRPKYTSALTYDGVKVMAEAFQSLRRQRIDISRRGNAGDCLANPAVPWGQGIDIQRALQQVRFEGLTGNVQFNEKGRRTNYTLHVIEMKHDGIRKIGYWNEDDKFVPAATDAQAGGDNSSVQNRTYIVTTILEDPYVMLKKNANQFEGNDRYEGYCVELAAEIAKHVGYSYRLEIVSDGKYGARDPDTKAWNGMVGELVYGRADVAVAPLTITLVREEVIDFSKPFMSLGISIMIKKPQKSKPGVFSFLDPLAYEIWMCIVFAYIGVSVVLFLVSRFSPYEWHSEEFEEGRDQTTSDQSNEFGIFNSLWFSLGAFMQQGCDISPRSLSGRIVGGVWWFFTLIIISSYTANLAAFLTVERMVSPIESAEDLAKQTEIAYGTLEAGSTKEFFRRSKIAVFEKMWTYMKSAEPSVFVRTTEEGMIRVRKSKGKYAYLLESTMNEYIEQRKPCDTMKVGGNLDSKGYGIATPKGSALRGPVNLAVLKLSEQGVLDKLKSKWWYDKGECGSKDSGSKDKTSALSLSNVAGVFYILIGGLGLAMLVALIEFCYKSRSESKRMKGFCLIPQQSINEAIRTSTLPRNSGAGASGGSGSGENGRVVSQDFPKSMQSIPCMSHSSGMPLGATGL

binding result: binds
B1: DNA damage-inducible transcript 4-like (DDIT4L) intron retention spliced product (DIR) protein (other)
chain: MVATGSLSSKNPASISELLDCGYHPESLLSGECPRCPPFSPPKVGASGSIGWAGFRLPPLPLCRRCHKIHLRRLLSKFSNIFSP
notes: 84 aa spliced product peptide; also called QDLIR; human DIR
